Data from patent US20250376501A1.

Experiments:
Experiment in all cases: Gator BLI, hTSLP mutant from CHO cells against 3H10-biotin
[1] = target: hTSLP-D18A (human) (UniProt Q969D9)
[2] = target: hTSLP-E20A (human) (UniProt Q969D9)
[3] = target: hTSLP-K135A (human) (UniProt Q969D9)
[4] = target: hTSLP-K21A (human) (UniProt Q969D9)
[5] = target: hTSLP-K23A (human) (UniProt Q969D9)
[6] = target: hTSLP-K32A (human) (UniProt Q969D9)
[7] = target: hTSLP-L133A (human) (UniProt Q969D9)
[8] = target: hTSLP-L27A (human) (UniProt Q969D9)
Sequence of hTSLP-L27A (human) (Q969D9 29-159 R127A/R130A): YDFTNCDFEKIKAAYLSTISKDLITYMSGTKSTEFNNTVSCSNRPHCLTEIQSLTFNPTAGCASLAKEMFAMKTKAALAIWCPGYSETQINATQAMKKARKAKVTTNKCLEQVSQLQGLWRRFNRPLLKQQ

[9] = target: hTSLP-N130A (human) (UniProt Q969D9)
Sequence of hTSLP-N130A (human) (Q969D9 29-159 R127A/R130A): as above

[10] = target: hTSLP-R127A (human) (UniProt Q969D9)
Sequence of hTSLP-R127A (human) (Q969D9 29-159 R127A/R130A): as above

[11] = target: hTSLP-R131A (human) (UniProt Q969D9)
Sequence of hTSLP-R131A (human) (Q969D9 29-159 R127A/R130A): as above

[12] = target: hTSLP-R55A (human) (UniProt Q969D9)
Sequence of hTSLP-R55A (human) (Q969D9 29-159 R127A/R130A): as above

[13] = target: hTSLP-S28A (human) (UniProt Q969D9)
Sequence of hTSLP-S28A (human) (Q969D9 29-159 R127A/R130A): as above

[14] = target: hTSLP-S43A (human) (UniProt Q969D9)
Sequence of hTSLP-S43A (human) (Q969D9 29-159 R127A/R130A): as above

Sequence of hTSLP-D18A (human) (Q969D9 29-159 R127A/R130A): as above
Sequence of hTSLP-E20A (human) (Q969D9 29-159 R127A/R130A): as above
Sequence of hTSLP-K21A (human) (Q969D9 29-159 R127A/R130A): as above
Sequence of hTSLP-K135A (human) (Q969D9 29-159 R127A/R130A): as above
Sequence of hTSLP-K23A (human) (Q969D9 29-159 R127A/R130A): as above
Sequence of hTSLP-K32A (human) (Q969D9 29-159 R127A/R130A): as above
Sequence of hTSLP-L133A (human) (Q969D9 29-159 R127A/R130A): as above

Decreased fold in binding affinity compared to wild-type TSLP [1]: 7.9 fold
Decreased fold in binding affinity compared to wild-type TSLP [2]: 6.1 fold
Decreased fold in binding affinity compared to wild-type TSLP [3]: 1.7 fold
Decreased fold in binding affinity compared to wild-type TSLP [4]: 11.9 fold
Decreased fold in binding affinity compared to wild-type TSLP [5]: 2.4 fold
Decreased fold in binding affinity compared to wild-type TSLP [6]: 1.2 fold
Decreased fold in binding affinity compared to wild-type TSLP [7]: 2.05 fold
Decreased fold in binding affinity compared to wild-type TSLP [8]: 9.3 fold
Decreased fold in binding affinity compared to wild-type TSLP [9]: 2.2 fold
Decreased fold in binding affinity compared to wild-type TSLP [10]: 1.8 fold
Decreased fold in binding affinity compared to wild-type TSLP [11]: 2.1 fold
Decreased fold in binding affinity compared to wild-type TSLP [12]: 0.5 fold
Decreased fold in binding affinity compared to wild-type TSLP [13]: 5.1 fold
Decreased fold in binding affinity compared to wild-type TSLP [14]: 5 fold
B1: 3H10-biotin protein (designed binder)
chain: GSHMDLGKKLLEAAWAGRDDEVRILMANGADVNAGDASGDTPLHLAAFSGHLEIVEVLLKHGADVNAEDLLGMTPLHLAAPFGHLEIVEVLLKHGADVNAAARNNGKTPLHLAAFVGHLEIVEVLLKNGADVNAQDKFGKTAFDISIDNGNEDLAEILQKLNG
modifications: biotin (site not stated)
